Source: FireProtDB (doi:10.1111/j.1432-1033.1994.tb18977.x)

Details: Saccharomyces cerevisiae (strain ATCC 204508 / S288c), pH 7, 30 °C, Urea, Fluorescence, Potassium phosphate 50 mM

Sequence of Cytochrome c isoform 1 D96C|C108T, P00044 D96C C108T (P00044 whole entry D96C/C108T, canonical isoform): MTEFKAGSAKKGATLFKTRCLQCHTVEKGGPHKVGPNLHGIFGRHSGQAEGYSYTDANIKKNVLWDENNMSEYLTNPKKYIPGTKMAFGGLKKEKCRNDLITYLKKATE
Sequence of Cytochrome c isoform 1 C108T, P00044 (P00044 whole entry C108T, canonical isoform): as the sequence (P00044 whole entry D96C/C108T, canonical isoform) above, with C96D counted along it
Sequence of Cytochrome c isoform 1 R19C|C108T, P00044 R19C C108T (P00044 whole entry R19C/C108T, canonical isoform): as the sequence (P00044 whole entry D96C/C108T, canonical isoform) above, with R19C, C96D counted along it
Sequence of Cytochrome c isoform 1 wild type, P00044 (P00044 whole entry, canonical isoform): as the sequence (P00044 whole entry D96C/C108T, canonical isoform) above, with C96D, T108C counted along it

Substance	ddG of mutation (higher = less stable) (structure 1YCC)	denaturant m value (structure 1YCC)	denaturant midpoint (higher = more stable) (structure 1YCC)	unfolding free energy (structure 1YCC)	denaturant m value	denaturant midpoint (higher = more stable)	unfolding free energy
Cytochrome c isoform 1 C108T, P00044	-4.09 kcal/mol	1.79 kcal/mol/M	3.6 M	6.48 kcal/mol			
Cytochrome c isoform 1 D96C|C108T, P00044 D96C C108T	-0.91 kcal/mol	1.2 kcal/mol/M	2.8 M	3.3 kcal/mol			
Cytochrome c isoform 1 R19C|C108T, P00044 R19C C108T	-4.21 kcal/mol	1.79 kcal/mol/M	3.7 M	6.6 kcal/mol			
Cytochrome c isoform 1 wild type, P00044					0.91 kcal/mol/M	2.6 M	2.39 kcal/mol
